In series [1] the target is Mouse FOLR1 (Mus musculus, UniProt P35846). Briefly: ELISA species specificity of antibodies. It counts as binding. Particulars: coated antigen mouse FOLR1. The protocol: (§1) Each antigen was diluted to 1 μg/mL with PBS and added to a microplate (manufacturer: Corning, Catalog No.: 42592) in a volume of 100 μL per well, and the microplate was coated overnight in a refrigerator (2-8° C.). The coating solution was discarded, and 200 μL of a blocking solution (containing 5% skimmed milk powder, prepared from PBS) was added. The microplate was left to stand in an electric thermostatic incubator at 37° C. for 2 h. The blocking solution was discarded, and the microplate was washed 3 times with 0.05% PBST. Antibody dilutions at different concentrations (at an initial concentration of 6 μg/mL, 3-fold dilution, 8 concentration gradients in total, diluted with PBS) were added at 100 μL per well. The microplate was left to stand in the electric thermostatic incubator at 37° C. for 2 h. The antibody dilutions were discarded, and the microplate was washed 8 times with 0.05% PBST and patted dry. Anti-Human Kappa Light Chains (Bound and Free) peroxidase antibody Produced in goat (manufacturer: sigma, Catalog No.: A7164-1ML) diluted in a 1:10000 ratio was added at 100 µL/well. The microplate was left to stand in the electric thermostatic incubator at 37° C. for 1 h. […] The microplate was read on SpectraMax Plus Absorbance Microplate Reader with an absorption light wavelength of 450 nm.
(In general: An ELISA detects its analyte on a solid surface through an enzyme-linked reagent.)

Series [2] deals with Rat FOLR1 (Rattus norvegicus, UniProt Q9JL02). Description: ELISA species specificity of antibodies. It counts as binding. The settings on record: coated antigen rat FOLR1. The protocol:
as §1

For series [3] the following is noted: Exatecan in plasma, 0.25 mg/kg iv infusion 30 min. The procedure:
24 common cynomolgus monkeys aged 3-5 years (half male and half female) were adopted and randomly divided into 4 groups, and each group consisted of 3 female animals and 3 male animals. […] Blood samples were collected until 504 hours after the end of the administration. The major pharmacokinetic parameters, i.e., AUC(0-t), AUC(0-∞), T1/2, Cmax, Tmax, CL, MRT, etc., were calculated from the plasma concentration data with a non-compartmental model using Phoenix WinNonlin® 7.0 software.

Series [4] concerns the target T1, folate receptor α (FRα) on FRα-positive cells (JEG-3, MCF-7) (UniProt P15328 25-234, limits assumed).
T1 construct: whole, on cells; also called JEG-3 cells; JEG3 cells
Briefly: flow cytometry on JEG-3 cells. (In general: A flow cytometer gives signals particle by particle.)

The target in series [5] is T2, antigen FRα-His (human FRα extracellular domain with C-terminal 8×HIS tag) (human, UniProt P15328 25-233).
T2 construct: The entry still carries the N-terminal signal peptide; Expressed in CHO-K1 cells; also called FOLR1
Description: ELISA, antigen coated at 1 µg/mL, antibody titrated. The protocol: (§2) Each antigen was diluted to 1 μg/mL with PBS and added to a microplate (manufacturer: Corning, Catalog No.: 42592) in a volume of 100 μL per well, and the microplate was coated overnight in a refrigerator (2-8° C.). The coating solution was discarded, and 200 μL of a blocking solution (containing 5% skimmed milk powder, prepared from PBS) was added. The microplate was left to stand in an electric thermostatic incubator at 37° C. for 2 h. The blocking solution was discarded, and the microplate was washed 3 times with 0.05% PBST. Antibody dilutions at different concentrations (at an initial concentration of 6 μg/mL, 3-fold dilution, 8 concentration gradients in total, diluted with PBS) were added at 100 μL per well. The microplate was left to stand in the electric thermostatic incubator at 37° C. for 2 h. The antibody dilutions were discarded, and the microplate was washed 8 times with 0.05% PBST and patted dry. Anti-Human Kappa Light Chains (Bound and Free) peroxidase antibody Produced in goat (manufacturer: sigma, Catalog No.: A7164-1ML) diluted in a 1:10000 ratio was added at 100 µL/well. The microplate was left to stand in the electric thermostatic incubator at 37° C. for 1 h. The antibody dilutions were discarded, and the microplate was washed 8 times with 0.05% PBST and patted dry. Single-component TMB substrate solution I (manufacturer: Huzhou InnoReagents Co., Ltd.; Catalog No.: TMB-S-001) was added at 100 μL/well, and the microplate was left to stand in the electric thermostatic incubator at 37° C. for 10 min in the dark. 0.1 M H₂SO₄ was added at 100 μL/well to terminate the reaction.

Series [6] has as its target T3, Cynomolgus monkey FOLR1 (manufacturer: Acro, Catalog No.: F01-C52H8) (cynomolgus monkey, UniProt A0A2K5U044 25-233).
T3 construct: Bought reagent
The series is described as above. The protocol:
as §2

Series [7] addresses T2, antigen FRα-His (human FRα …). Briefly: SPR (Biacore T200), antibody captured on Protein A chip, antigen as analyte, 1:1 model; Table 7 experiment (antigen specificity, FOLR1/FOLR2/FOLR3). The protocol:
(§3) A Protein A chip was used for the assay.
(§4) Experiment results were analyzed using data analysis software Evaluation Software 3.1. The sensing signals acquired from the experimental flow channels for the samples were subjected to double subtraction (minus values of reference flow channels and blank control), and the fitting was performed using a “1:1” kinetic model to obtain the kinetic parameters (Ka: association rate; Kd: dissociation rate; KD: equilibrium dissociation constant) for the binding of each sample to the antigens.
A general note: Surface plasmon resonance follows binding to a sensor surface in real time, without labels.

The target of series [8] is T4, FOLR2 (purchased from Acro, Catalog No. FO2-H5223) (UniProt P14207 17-228).
T4 construct: Bought reagent; also called folate receptor β
Description: SPR (Biacore T200), antibody captured on Protein A chip, antigen as analyte. The protocol: as §3, §4

The target of series [9] is T5, FOLR3 (purchased from R&D, Catalog No. 5319-FR-050) (UniProt P41439 23-245, limits assumed).
T5 construct: Bought reagent; also called folate receptor γ
Described as above. The protocol: as §3, §4

Series [10] addresses T6, Rat FOLR1 (manufacturer: sino Biological, Catalog No.: 81073-R08NO0507) (rat, UniProt G3V8M6 25-232).
T6 construct: Bought reagent
Description: ELISA, antigen coated at 1 µg/mL. The protocol:
as §2

Series [11] addresses T7, Mouse FOLR1 (manufacturer: Acro, Catalog No.: F01-M5225) (mouse, UniProt P35846 25-232).
T7 construct: Bought reagent
Briefly: ELISA, antigen coated at 1 µg/mL. The procedure:
as §2

Series [12] addresses T2, antigen FRα-His (human FRα …). Briefly: SPR (Biacore T200), drug captured on Protein A chip, FRα-His as analyte, 1:1 model. The protocol: as §3, §4
Series [13] has the same target. Description: SPR (Biacore T200), antibody captured on Protein A chip, antigen as analyte, 1:1 model. The protocol: as §3, §4

Like-named read-outs stand apart in the source and are kept apart here.

T2 sequence (P15328 other isoform, or with tags, fused parts or gaps limits assumed): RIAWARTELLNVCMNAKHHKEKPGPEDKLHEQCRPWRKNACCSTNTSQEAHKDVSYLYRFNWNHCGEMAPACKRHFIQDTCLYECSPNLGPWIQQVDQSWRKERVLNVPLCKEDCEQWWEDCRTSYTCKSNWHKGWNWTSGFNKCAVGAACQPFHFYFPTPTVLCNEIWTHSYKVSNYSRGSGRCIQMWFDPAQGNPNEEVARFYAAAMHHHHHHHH
T4 sequence (P14207 17-228 limits assumed): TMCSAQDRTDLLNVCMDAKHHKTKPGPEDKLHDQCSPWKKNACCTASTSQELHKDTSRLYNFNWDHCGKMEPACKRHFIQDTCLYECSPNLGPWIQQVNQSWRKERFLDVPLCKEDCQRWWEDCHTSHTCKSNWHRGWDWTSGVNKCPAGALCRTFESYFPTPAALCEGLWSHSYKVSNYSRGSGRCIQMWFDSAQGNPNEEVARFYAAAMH
T7 sequence (P35846 25-232 limits assumed): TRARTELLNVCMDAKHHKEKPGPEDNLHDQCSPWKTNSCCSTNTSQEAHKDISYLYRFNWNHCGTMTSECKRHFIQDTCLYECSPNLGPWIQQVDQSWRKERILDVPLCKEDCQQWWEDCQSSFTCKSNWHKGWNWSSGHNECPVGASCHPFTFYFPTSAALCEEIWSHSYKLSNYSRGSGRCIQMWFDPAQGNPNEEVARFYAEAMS
T6 sequence (G3V8M6 entry or part of it limits assumed): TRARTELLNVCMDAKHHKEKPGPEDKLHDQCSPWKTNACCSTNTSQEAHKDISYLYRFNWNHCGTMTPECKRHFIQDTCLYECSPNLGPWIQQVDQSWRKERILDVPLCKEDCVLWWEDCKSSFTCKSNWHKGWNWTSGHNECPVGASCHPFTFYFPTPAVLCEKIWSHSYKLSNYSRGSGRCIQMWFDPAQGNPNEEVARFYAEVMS
T5 sequence (P41439 23-245 limits assumed): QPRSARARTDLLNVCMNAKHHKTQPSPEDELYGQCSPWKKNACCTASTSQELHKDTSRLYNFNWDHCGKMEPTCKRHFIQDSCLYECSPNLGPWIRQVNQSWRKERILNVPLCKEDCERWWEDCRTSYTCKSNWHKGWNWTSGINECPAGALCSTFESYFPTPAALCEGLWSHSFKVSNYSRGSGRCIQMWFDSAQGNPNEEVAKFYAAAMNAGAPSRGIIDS
T3 sequence (A0A2K5U044 entry or part of it): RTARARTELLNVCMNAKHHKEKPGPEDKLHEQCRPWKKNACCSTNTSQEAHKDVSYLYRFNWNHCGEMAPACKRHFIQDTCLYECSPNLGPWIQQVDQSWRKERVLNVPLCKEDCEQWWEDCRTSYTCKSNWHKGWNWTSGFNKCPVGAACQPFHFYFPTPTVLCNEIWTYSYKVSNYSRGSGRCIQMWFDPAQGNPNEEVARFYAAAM
T1 sequence (P15328 25-234 limits assumed): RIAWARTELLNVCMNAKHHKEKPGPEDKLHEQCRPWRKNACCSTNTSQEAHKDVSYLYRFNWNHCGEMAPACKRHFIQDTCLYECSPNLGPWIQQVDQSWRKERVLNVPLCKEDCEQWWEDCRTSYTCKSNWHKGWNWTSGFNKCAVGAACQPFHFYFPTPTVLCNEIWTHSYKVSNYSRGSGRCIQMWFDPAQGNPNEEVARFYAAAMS
Mouse FOLR1, sequence (P35846 25-232): as the sequence (P35846 25-232 limits assumed) above
Rat FOLR1, sequence (Q9JL02 20-255): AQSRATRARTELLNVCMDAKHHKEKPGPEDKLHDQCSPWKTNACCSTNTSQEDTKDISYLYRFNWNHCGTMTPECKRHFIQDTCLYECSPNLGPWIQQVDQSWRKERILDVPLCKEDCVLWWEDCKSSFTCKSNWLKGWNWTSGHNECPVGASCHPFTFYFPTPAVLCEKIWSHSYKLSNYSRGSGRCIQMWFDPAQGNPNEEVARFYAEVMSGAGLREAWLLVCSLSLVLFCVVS

A word on the EC50: it is the midpoint of the concentration-response curve. As to “huMOV19: control antibody huMOV19, heavy chain SEQ ID NO: 34, light chain SEQ ID NO: 35”, the EC50 result in series [1] and in [2] was “— (“—” indicates no binding)” each time.
What is called AUC(0-t) is exposure summed from dosing to a finite time, without extrapolation to infinity. The term Cmax denotes the peak of the concentration-time curve. The term Tmax denotes the time from dosing to the highest level. As to “(1S,9S)-1-amino-9-ethyl-5-fluoro-9-hydroxy-4-methyl-1,2,3,9,12,15-hexahydro-10H,13H-benzo[3′,4′:6,7]indoline[1,2-b]quinoline-10,13-dione methanesulfonate [Exatecan Mesylate]”, in [3] (female), the “AUC(0-t)” value was 155.05 ng·h/mL, the Cmax is 237.567 ng/mL and the Tmax amounted to 30 min. Further, in series [3] (male), the area under the curve AUC(0-t) was found to be 231.77 ng·h/mL, the Cmax was 349.808 ng/mL and the Tmax turned out to be 30 min.

B1: Antibody 1 (humanized anti-FRα antibody) (antibody, human IgG1, kappa, V domains shown)
VH: QVQLVQSGVEVKKPGASVKVSCKASGYSFTGYFMNWVRQAPGQGLEWIGRIHPYDGDTFYNQNFKDKATLTVDKSTTTAYMELKSLQFDDTAVYYCTRYDGSRAMDYWGQGTTVTVSS
VL: EIVLTQSPATLSLSPGERATLSCKASQSVSFAGTSLMHWYQQKPGQAPRLLIYRASNLEAGVPARFSGSGSKTDFTLTISSLEPEDFAVYYCQQSREYPYTFGGGTKVEIKR
notes: also called anti-FRα antibody No. 1
What is called Kd is a measure of binding affinity in units of concentration. The koff is the rate constant with which the complex falls apart. The kon is the second-order rate constant of association. As to B1, the EC50 in series [4] was 1.41 nM; in series [5], 0.069 µg/mL; in series [6] it was 0.066 µg/mL. In addition, the Kd in series [7] was found to be 0.703 nM; in series [12], 0.287 nM. Moreover, the binding result in series [8] is “no binding (tested: antigen up to 100 nM)”; in series [9], “no binding (tested: antigen up to 100 nM)”; in series [10], “no binding (tested: antibody up to 6 µg/mL)”; in [11] it was “no binding (tested: antibody up to 6 µg/mL)”. This molecule also showed a koff in series [12] of 0.000293 s⁻¹. In addition, the kon in series [12] was determined as 1.02e+06 M⁻¹ s⁻¹.

B2: control antibody huMOV19 (antibody, human IgG1, kappa, V domains shown)
VH: QVQLVQSGAEVVKPGASVKISCKASGYTFTGYFMNWVKQSPGQSLEWIGRIHPYDGDTFYNQKFQGKATLTVDKSSNTAHMELLSLTSEDFAVYYCTRYDGSRAMDYWGQGTTVTVSS
VL: DIVLTQSPLSLAVSLGQPAIISCKASQSVSFAGTSLMHWYHQKPGQQPRLLIYRASNLEAGVPDRFSGSGSKTDFTLTISPVEAEDAATYYCQQSREYPYTFGGGTKLEIKR
As to B2, the EC50 in [5] stood at 0.09 µg/mL; in [6], 0.087 µg/mL. For the same molecule, in [13], the Kd turned out to be 0.468 nM. For the same molecule, the binding result in [8] is reported as “no binding (tested: antigen up to 100 nM)”; in series [9], “no binding (tested: antigen up to 100 nM)”; in [10], “no binding (tested: antibody up to 6 µg/mL)”; in series [11], “no binding (tested: antibody up to 6 µg/mL)”.

These data come from US20250059274A1, “ANTI-FRa ANTIBODY, AND ANTIBODY-DRUG CONJUGATE AND USE THEREOF” (Bio-Thera Solutions, Ltd., priority 2021, published 2025).
